Source: patent US20210283212A1 (RA PHARMACEUTICALS, published 2021)
Read-outs that look alike come from different tables or passages of the source. Starred links: 1 amine or outer side, 2 acyl side, 3 side chain; linkers in the order of their positions; H or OH if unused. Positions of bridges follow the written chain, without caps; N, C: chain ends. Non-standard residues stand in square brackets, D forms with d. Primed or numbered codes have the meaning given here. No end group written: not given here. *: point of attachment. mXylyl(3) = bridging moiety between the two residues given in brackets; m‑xylyl = bridging moiety between the two residues given in brackets; Lys(ivDde) = CC(C)CC(NCCCC[C@H](N)C(=O)O)=C1C(=O)CC(C)(C)CC1=O; Phe(3-CH2NH2) = O=C([C@H](Cc1cccc(CN[*:3])c1)N[*:1])[*:2]; mXylyl″ = bridging moiety between the two marked residues; Ala(1H-tetrazol-5-yl) = N[C@@H](Cc1nnn[nH]1)C(=O)O; Trp(5-F) = N[C@@H](Cc1c[nH]c2ccc(F)cc12)C(=O)O; Trp(7-aza) = N[C@@H](Cc1c[nH]c2ncccc12)C(=O)O; mXylyl(4) = bridging moiety between residues; Trp(1-Me) = Cn1cc(C[C@H](N)C(=O)O)c2ccccc21; 2Nal = N[C@@H](Cc1ccc2ccccc2c1)C(=O)O; Palmitoyl = CCCCCCCCCCCCCCCC(=O)*; NMeD = CN[C@@H](CC(=O)O)C(=O)O; Chg = N[C@H](C(=O)O)C1CCCCC1; Phg = N[C@H](C(=O)O)c1ccccc1; Tle = CC(C)(C)[C@H](N)C(=O)O; NMeS = CN[C@@H](CO)C(=O)O; Ac5c = NC1(C(=O)O)CCCC1; Nva = CCC[C@H](N)C(=O)O; Thp = NC1(C(=O)O)CCOCC1; Mpa = O=C(O)CCS

B1: R3194 (peptide)
peptide: Ac-KVERFD[NMeD][Tle]Y[Trp(7-aza)]EYP[Chg]K(Palmitoyl)-NH2
modifications: lactam 1-6
SMILES: CCCCCCCCCCCCCCCC(=O)NCCCC[C@H](NC(=O)[C@@H](NC(=O)[C@@H]1CCCN1C(=O)[C@H](Cc1ccc(O)cc1)NC(=O)[C@H](CCC(=O)O)NC(=O)[C@H](Cc1c[nH]c2ncccc12)NC(=O)[C@H](Cc1ccc(O)cc1)NC(=O)[C@@H](NC(=O)[C@H](CC(=O)O)N(C)C(=O)[C@@H]1CC(=O)NCCCC[C@H](NC(C)=O)C(=O)N[C@@H](C(C)C)C(=O)N[C@@H](CCC(=O)O)C(=O)N[C@@H](CCCNC(=N)N)C(=O)N[C@@H](Cc2ccccc2)C(=O)N1)C(C)(C)C)C1CCCCC1)C(N)=O
B2: R3110 (peptide)
peptide: Ac-YEN[Tle]Y[Trp(1-Me)]EYP[Phg][Nva]-NH2
SMILES: CCC[C@H](NC(=O)[C@@H](NC(=O)[C@@H]1CCCN1C(=O)[C@H](Cc1ccc(O)cc1)NC(=O)[C@H](CCC(=O)O)NC(=O)[C@H](Cc1cn(C)c2ccccc12)NC(=O)[C@H](Cc1ccc(O)cc1)NC(=O)[C@@H](NC(=O)[C@H](CC(N)=O)NC(=O)[C@H](CCC(=O)O)NC(=O)[C@H](Cc1ccc(O)cc1)NC(C)=O)C(C)(C)C)c1ccccc1)C(N)=O
B3: R3119 (peptide)
peptide: Ac-YENY[dW]EYP[Phg][Nva]-NH2
SMILES: CCC[C@H](NC(=O)[C@@H](NC(=O)[C@@H]1CCCN1C(=O)[C@H](Cc1ccc(O)cc1)NC(=O)[C@H](CCC(=O)O)NC(=O)[C@@H](Cc1c[nH]c2ccccc12)NC(=O)[C@H](Cc1ccc(O)cc1)NC(=O)[C@H](CC(N)=O)NC(=O)[C@H](CCC(=O)O)NC(=O)[C@H](Cc1ccc(O)cc1)NC(C)=O)c1ccccc1)C(N)=O
B4: R3192 (peptide)
peptide: Ac-KVERFD[NMeD][Tle]Y[Trp(7-aza)]EYP[Chg]K-NH2
modifications: lactam 1-6
SMILES: CC(=O)N[C@H]1CCCCNC(=O)C[C@@H](C(=O)N(C)[C@@H](CC(=O)O)C(=O)N[C@H](C(=O)N[C@@H](Cc2ccc(O)cc2)C(=O)N[C@@H](Cc2c[nH]c3ncccc23)C(=O)N[C@@H](CCC(=O)O)C(=O)N[C@@H](Cc2ccc(O)cc2)C(=O)N2CCC[C@H]2C(=O)N[C@H](C(=O)N[C@@H](CCCCN)C(N)=O)C2CCCCC2)C(C)(C)C)NC(=O)[C@H](Cc2ccccc2)NC(=O)[C@H](CCCNC(=N)N)NC(=O)[C@H](CCC(=O)O)NC(=O)[C@H](C(C)C)NC1=O
B5: R3041 (peptide)
peptide: Ac-YEN[Tle]YWEYP[Phg][Nva]-NH2
SMILES: CCC[C@H](NC(=O)[C@@H](NC(=O)[C@@H]1CCCN1C(=O)[C@H](Cc1ccc(O)cc1)NC(=O)[C@H](CCC(=O)O)NC(=O)[C@H](Cc1c[nH]c2ccccc12)NC(=O)[C@H](Cc1ccc(O)cc1)NC(=O)[C@@H](NC(=O)[C@H](CC(N)=O)NC(=O)[C@H](CCC(=O)O)NC(=O)[C@H](Cc1ccc(O)cc1)NC(C)=O)C(C)(C)C)c1ccccc1)C(N)=O

Key:
Assay in all cases: cell-based or functional assay
[1] = target: T1, human C5 protein (human, UniProt P01031 19-673; P01031 678-1676)
[2] = target: T1, human C5 protein; remark: listed apart in the source
[3] = target: T1, human C5 protein; remark: listed apart in the source
[4] = target: T1, human C5 protein; remark: listed apart in the source

Binder	Avg. IC50, hemolysis assay with C5 depleted sera [1] [nM]	Avg. IC50 (nM), human hemolysis assay [2] [nM]	Avg. IC50, human hemolysis assay [3] [nM]	Avg. IC50 (nM), human hemolysis assay [4] [nM]
B1	15.5			
Ac-[Nva]C[Phg]T[dW]EY[NMeS]HC[Nva]-NH2 (linker 2-10 via mXylyl(3)) [R3132]		> 100000	> 100000	
Ac-[Nva]C[Phg]T[Trp(1-Me)]EY[NMeS]AC[Nva]-NH2 (linker 2-10 via mXylyl(3)) [R3109]		> 100000	> 100000	
Ac-[Nva]C[Phg]T[Trp(5-F)]EY[NMeS]AC[Nva]-NH2 (linker 2-10 via mXylyl(3)) [R3088]		> 100000	> 100000	
[Mpa][dA]ERFC[NMeD][Tle]Y[Trp(7-aza)]EYP[Chg]K(Palmitoyl) (bridge 1-6; also: cyclo(1,6) between Cys1 and Cys6, ring kind not given here) [R3199]	112			
Ac-CVERFCD[Tle]Y[Phe(3-CH2NH2)]EYP[Chg][Nva] (linker 1-6 via m‑xylyl) [R3181]	1500			
Ac-[Nva]CYNN[Tle]ECEYP[Phg][Tle]-NH2 (cysteine pairing not given here) [R3128]			> 100000	> 100000
Ac-KVERFD[NMeD][Tle]YWEYP[Chg][Lys(ivDde)] (lactam 1-6) [R3197]	4			
Ac-CVERFCD[Tle]Y[Trp(7-aza)]E[(m-Cl-homo)Phe]P[Chg][Nva] (linker 1-6 via m‑xylyl) [R3179]	83			
Ac-CVERFC[Ac5c][Tle]Y[Trp(7-aza)]EYP[Chg][Nva] (linker 1-6 via m‑xylyl) [R3185]	12.5			
Ac-CVERFCD[Tle]Y[Trp(7-aza)]EWP[Chg][Nva] (linker 1-6 via m‑xylyl) [R3177]	12			
Ac-[Nva]C[Phg]T[Trp(7-aza)]EF[NMeS]AC[Nva]-NH2 (linker 2-10 via mXylyl(3)) [R3100]			626	
B2			2940	2940
Ac-[Nva]C[Phg]TWEY[NMeS]AC[Nva]-NH2 (linker 2-10 via mXylyl(3)) [R3091]		483	483	
Ac-CAERFCD[Tle]Y[Trp(7-aza)]EYP[Phg]K(Palmitoyl) (linker 1-6 via m‑xylyl) [R3189]	81.5			
B3			> 100000	> 100000
B4	1.5			
Ac-[Nva]C[Phg]TAEY[NMeS]HC[Nva]-NH2 (linker 2-10 via mXylyl(4)) [R3034]		> 50000	> 50000	
Ac-KVERFD[NMeD][Tle]YWEYP[Chg]K(Palmitoyl) (lactam 1-6) [R3195]	62.5			
VERFCD[Tle]Y[Trp(7-aza)]EYP[Chg][Nva] (thioether 1-5) [R3184]	4			
Ac-[Nva]CYEN[Tle]YCEYP[Phg][Nva]-NH2 (linker 2-8 via mXylyl″) [R3017]			> 100000	> 100000
Ac-KVERFD[NMeD][Tle]YWEYP[Chg]K (lactam 1-6) [R3196]	3			
Ac-CVERFC[Thp][Tle]Y[Trp(7-aza)]EYP[Chg][Nva] (linker 1-6 via mXylyl(3)) [R3186]	18			
B5			71.3	71.3
Ac-[Nva]C[Phg]TW[Ala(1H-tetrazol-5-yl)]Y[NMeS]HC[Nva]-NH2 (linker 2-10 via mXylyl(3)) [R3131]		> 100000	> 100000	
[Mpa]VERFC[NMeD][Tle]Y[Trp(7-aza)]EYP[Chg]K(Palmitoyl) (bridge 1-6; also: cyclo(1,6) between Cys1 and Cys6, ring kind not given here) [R3198]	142			
Ac-[Nva]CYNN[Tle]ECEYP[Phg][Tle]-NH2 (linker 2-8 via mXylyl(3)) [R3129]			> 100000	> 100000
Ac-CVERFCD[Tle]Y[Trp(7-aza)]E[2Nal]P[Chg][Nva] (linker 1-6 via m‑xylyl) [R3180]	29			
Ac-[Nva]C[Phg]TFEY[NMeS]AC[Nva]-NH2 (linker 2-10 via mXylyl(3)) [R3092]		> 50000	> 50000	
